# Results reported in patent US20250073311A1, “DOSAGE REGIME” (ZEALAND PHARMA A/S, priority 2021, published 2025).
# Numbered stars: 1 amine (or outer) side, 2 acyl side, 3 side chain; on linkers, the order of the positions; unused ones are H or OH. Square brackets hold non-standard residues; d marks the D form. Side chains are listed from the residue outwards. * marks the point of attachment. C20 diacid = O=C(O)CCCCCCCCCCCCCCCCCCC(=O)*; C18 diacid = O=C(O)CCCCCCCCCCCCCCCCC(=O)*; γGlu = O=C(O)[C@H](CCC(=O)[*:2])N[*:1]; AEEA = NCCOCCOCC(=O)O; Aib = CC(C)(N)C(=O)O
# B1: Compound 11 (peptide)
# peptide: H-H[Aib]EGSFTSELATILDK([γGlu-C18 diacid])LAARDFIAWLIEHKITD-OH
# SMILES: CC[C@H](C)[C@H](NC(=O)[C@H](Cc1ccccc1)NC(=O)[C@H](CC(=O)O)NC(=O)[C@H](CCCNC(=N)N)NC(=O)[C@H](C)NC(=O)[C@H](C)NC(=O)[C@H](CC(C)C)NC(=O)[C@H](CCCCNC(=O)CC[C@H](NC(=O)CCCCCCCCCCCCCCCCC(=O)O)C(=O)O)NC(=O)[C@H](CC(=O)O)NC(=O)[C@H](CC(C)C)NC(=O)[C@@H](NC(=O)[C@@H](NC(=O)[C@H](C)NC(=O)[C@H](CC(C)C)NC(=O)[C@H](CCC(=O)O)NC(=O)[C@H](CO)NC(=O)[C@@H](NC(=O)[C@H](Cc1ccccc1)NC(=O)[C@H](CO)NC(=O)CNC(=O)[C@H](CCC(=O)O)NC(=O)C(C)(C)NC(=O)[C@@H](N)Cc1c[nH]cn1)[C@@H](C)O)[C@@H](C)O)[C@@H](C)CC)C(=O)N[C@@H](C)C(=O)N[C@@H](Cc1c[nH]c2ccccc12)C(=O)N[C@@H](CC(C)C)C(=O)N[C@H](C(=O)N[C@@H](CCC(=O)O)C(=O)N[C@@H](Cc1c[nH]cn1)C(=O)N[C@@H](CCCCN)C(=O)N[C@H](C(=O)N[C@H](C(=O)N[C@@H](CC(=O)O)C(=O)O)[C@@H](C)O)[C@@H](C)CC)[C@@H](C)CC
# B2: Compound 9 (peptide)
# peptide: H-H[Aib]EGTFTSELATILDGK([γGlu-C18 diacid])AARDFIAWLIEHKITD-OH
# SMILES: CC[C@H](C)[C@H](NC(=O)[C@H](Cc1ccccc1)NC(=O)[C@H](CC(=O)O)NC(=O)[C@H](CCCNC(=N)N)NC(=O)[C@H](C)NC(=O)[C@H](C)NC(=O)[C@H](CCCCNC(=O)CC[C@H](NC(=O)CCCCCCCCCCCCCCCCC(=O)O)C(=O)O)NC(=O)CNC(=O)[C@H](CC(=O)O)NC(=O)[C@H](CC(C)C)NC(=O)[C@@H](NC(=O)[C@@H](NC(=O)[C@H](C)NC(=O)[C@H](CC(C)C)NC(=O)[C@H](CCC(=O)O)NC(=O)[C@H](CO)NC(=O)[C@@H](NC(=O)[C@H](Cc1ccccc1)NC(=O)[C@@H](NC(=O)CNC(=O)[C@H](CCC(=O)O)NC(=O)C(C)(C)NC(=O)[C@@H](N)Cc1c[nH]cn1)[C@@H](C)O)[C@@H](C)O)[C@@H](C)O)[C@@H](C)CC)C(=O)N[C@@H](C)C(=O)N[C@@H](Cc1c[nH]c2ccccc12)C(=O)N[C@@H](CC(C)C)C(=O)N[C@H](C(=O)N[C@@H](CCC(=O)O)C(=O)N[C@@H](Cc1c[nH]cn1)C(=O)N[C@@H](CCCCN)C(=O)N[C@H](C(=O)N[C@H](C(=O)N[C@@H](CC(=O)O)C(=O)O)[C@@H](C)O)[C@@H](C)CC)[C@@H](C)CC
# B3: Compound 5 (peptide)
# peptide: H-H[Aib]EGSFTSELATILDK([γGlu-C18 diacid])KAARDFIAWLIEHKITD-OH
# SMILES: CC[C@H](C)[C@H](NC(=O)[C@H](Cc1ccccc1)NC(=O)[C@H](CC(=O)O)NC(=O)[C@H](CCCNC(=N)N)NC(=O)[C@H](C)NC(=O)[C@H](C)NC(=O)[C@H](CCCCN)NC(=O)[C@H](CCCCNC(=O)CC[C@H](NC(=O)CCCCCCCCCCCCCCCCC(=O)O)C(=O)O)NC(=O)[C@H](CC(=O)O)NC(=O)[C@H](CC(C)C)NC(=O)[C@@H](NC(=O)[C@@H](NC(=O)[C@H](C)NC(=O)[C@H](CC(C)C)NC(=O)[C@H](CCC(=O)O)NC(=O)[C@H](CO)NC(=O)[C@@H](NC(=O)[C@H](Cc1ccccc1)NC(=O)[C@H](CO)NC(=O)CNC(=O)[C@H](CCC(=O)O)NC(=O)C(C)(C)NC(=O)[C@@H](N)Cc1c[nH]cn1)[C@@H](C)O)[C@@H](C)O)[C@@H](C)CC)C(=O)N[C@@H](C)C(=O)N[C@@H](Cc1c[nH]c2ccccc12)C(=O)N[C@@H](CC(C)C)C(=O)N[C@H](C(=O)N[C@@H](CCC(=O)O)C(=O)N[C@@H](Cc1c[nH]cn1)C(=O)N[C@@H](CCCCN)C(=O)N[C@H](C(=O)N[C@H](C(=O)N[C@@H](CC(=O)O)C(=O)O)[C@@H](C)O)[C@@H](C)CC)[C@@H](C)CC
# B4: Compound 7 (peptide)
# peptide: H-H[Aib]EGTFSSELATILDGK([γGlu-C18 diacid])AARDFIAWLIEHKITD-OH
# SMILES: CC[C@H](C)[C@H](NC(=O)[C@H](Cc1ccccc1)NC(=O)[C@H](CC(=O)O)NC(=O)[C@H](CCCNC(=N)N)NC(=O)[C@H](C)NC(=O)[C@H](C)NC(=O)[C@H](CCCCNC(=O)CC[C@H](NC(=O)CCCCCCCCCCCCCCCCC(=O)O)C(=O)O)NC(=O)CNC(=O)[C@H](CC(=O)O)NC(=O)[C@H](CC(C)C)NC(=O)[C@@H](NC(=O)[C@@H](NC(=O)[C@H](C)NC(=O)[C@H](CC(C)C)NC(=O)[C@H](CCC(=O)O)NC(=O)[C@H](CO)NC(=O)[C@H](CO)NC(=O)[C@H](Cc1ccccc1)NC(=O)[C@@H](NC(=O)CNC(=O)[C@H](CCC(=O)O)NC(=O)C(C)(C)NC(=O)[C@@H](N)Cc1c[nH]cn1)[C@@H](C)O)[C@@H](C)O)[C@@H](C)CC)C(=O)N[C@@H](C)C(=O)N[C@@H](Cc1c[nH]c2ccccc12)C(=O)N[C@@H](CC(C)C)C(=O)N[C@H](C(=O)N[C@@H](CCC(=O)O)C(=O)N[C@@H](Cc1c[nH]cn1)C(=O)N[C@@H](CCCCN)C(=O)N[C@H](C(=O)N[C@H](C(=O)N[C@@H](CC(=O)O)C(=O)O)[C@@H](C)O)[C@@H](C)CC)[C@@H](C)CC
# B5: Compound 10 (peptide)
# peptide: H-H[Aib]EGTFSSELATILDK([γGlu-C18 diacid])LAARDFIAWLIEHKITD-OH
# SMILES: CC[C@H](C)[C@H](NC(=O)[C@H](Cc1ccccc1)NC(=O)[C@H](CC(=O)O)NC(=O)[C@H](CCCNC(=N)N)NC(=O)[C@H](C)NC(=O)[C@H](C)NC(=O)[C@H](CC(C)C)NC(=O)[C@H](CCCCNC(=O)CC[C@H](NC(=O)CCCCCCCCCCCCCCCCC(=O)O)C(=O)O)NC(=O)[C@H](CC(=O)O)NC(=O)[C@H](CC(C)C)NC(=O)[C@@H](NC(=O)[C@@H](NC(=O)[C@H](C)NC(=O)[C@H](CC(C)C)NC(=O)[C@H](CCC(=O)O)NC(=O)[C@H](CO)NC(=O)[C@H](CO)NC(=O)[C@H](Cc1ccccc1)NC(=O)[C@@H](NC(=O)CNC(=O)[C@H](CCC(=O)O)NC(=O)C(C)(C)NC(=O)[C@@H](N)Cc1c[nH]cn1)[C@@H](C)O)[C@@H](C)O)[C@@H](C)CC)C(=O)N[C@@H](C)C(=O)N[C@@H](Cc1c[nH]c2ccccc12)C(=O)N[C@@H](CC(C)C)C(=O)N[C@H](C(=O)N[C@@H](CCC(=O)O)C(=O)N[C@@H](Cc1c[nH]cn1)C(=O)N[C@@H](CCCCN)C(=O)N[C@H](C(=O)N[C@H](C(=O)N[C@@H](CC(=O)O)C(=O)O)[C@@H](C)O)[C@@H](C)CC)[C@@H](C)CC
# B6: Compound 8 (peptide)
# peptide: H-H[Aib]EGSFTSELATILDGK([γGlu-C18 diacid])AARDFIAWLIEHKITD-OH
# SMILES: CC[C@H](C)[C@H](NC(=O)[C@H](Cc1ccccc1)NC(=O)[C@H](CC(=O)O)NC(=O)[C@H](CCCNC(=N)N)NC(=O)[C@H](C)NC(=O)[C@H](C)NC(=O)[C@H](CCCCNC(=O)CC[C@H](NC(=O)CCCCCCCCCCCCCCCCC(=O)O)C(=O)O)NC(=O)CNC(=O)[C@H](CC(=O)O)NC(=O)[C@H](CC(C)C)NC(=O)[C@@H](NC(=O)[C@@H](NC(=O)[C@H](C)NC(=O)[C@H](CC(C)C)NC(=O)[C@H](CCC(=O)O)NC(=O)[C@H](CO)NC(=O)[C@@H](NC(=O)[C@H](Cc1ccccc1)NC(=O)[C@H](CO)NC(=O)CNC(=O)[C@H](CCC(=O)O)NC(=O)C(C)(C)NC(=O)[C@@H](N)Cc1c[nH]cn1)[C@@H](C)O)[C@@H](C)O)[C@@H](C)CC)C(=O)N[C@@H](C)C(=O)N[C@@H](Cc1c[nH]c2ccccc12)C(=O)N[C@@H](CC(C)C)C(=O)N[C@H](C(=O)N[C@@H](CCC(=O)O)C(=O)N[C@@H](Cc1c[nH]cn1)C(=O)N[C@@H](CCCCN)C(=O)N[C@H](C(=O)N[C@H](C(=O)N[C@@H](CC(=O)O)C(=O)O)[C@@H](C)O)[C@@H](C)CC)[C@@H](C)CC
# Experiments:
# [1] = target: human glucagon-like peptide 1 receptor (GLP-1R) (human, UniProt P43220); test: cell-based or functional assay
# [2] = target: T1, human GLP-2 receptor (hGLP2-R) (human, UniProt O95838); test: cell-based or functional assay
# T1 sequence: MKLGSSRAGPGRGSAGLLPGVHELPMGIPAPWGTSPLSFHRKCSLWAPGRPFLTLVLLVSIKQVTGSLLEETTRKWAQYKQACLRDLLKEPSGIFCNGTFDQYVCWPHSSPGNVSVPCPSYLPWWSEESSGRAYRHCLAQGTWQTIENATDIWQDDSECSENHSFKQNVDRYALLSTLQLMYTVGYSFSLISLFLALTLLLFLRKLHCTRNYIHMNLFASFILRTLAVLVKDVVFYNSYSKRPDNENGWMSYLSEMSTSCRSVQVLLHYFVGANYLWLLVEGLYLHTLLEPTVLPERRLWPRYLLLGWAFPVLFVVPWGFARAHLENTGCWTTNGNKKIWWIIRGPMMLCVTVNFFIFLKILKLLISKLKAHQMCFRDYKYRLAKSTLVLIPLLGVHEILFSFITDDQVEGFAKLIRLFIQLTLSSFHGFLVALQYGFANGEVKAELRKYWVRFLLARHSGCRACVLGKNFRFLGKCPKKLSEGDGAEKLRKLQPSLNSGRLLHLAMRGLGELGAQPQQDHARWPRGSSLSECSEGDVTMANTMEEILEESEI
Binder,"EC50 GLP-1 (nM), cAMP AlphaScreen [1] [nM]","EC50 GLP-2 (nM), cAMP AlphaScreen [2] [nM]"
B1,0.32,0.085
H-H[Aib]EGTFTSELATILDK([γGlu-C18 diacid])KAARDFIAWLIEHKITD-OH [Compound 6],0.058,0.12
B2,0.056,0.056
H-H[Aib]EGTFSSELATILDK([γGlu-C18 diacid])KAARDFIAWLIEHKITD-OH [Compound 4],0.66,0.087
B3,0.17,0.063
B4,0.92,0.019
B5,1.8,0.087
B6,0.22,0.039
H-H[Aib]EGTFTSELATILDEQAAK([AEEA-AEEA-KEK-γGlu-C20 diacid])DFIAWLIEHKITD-OH [Compound 67],0.16,0.22
H-H[Aib]EGSFTSELATILDAKAAK([AEEA-KEK-γGlu-C20 diacid])DFIAWLIEHKITD-OH [Compound 68],0.084,0.1
H-H[Aib]EGSFTSELATILDEQAAK([AEEA-AEEA-KEK-γGlu-C20 diacid])DFIAWLIEHKITD-OH [Compound 66],0.65,0.18
